# In US20110239311:
# Key:
# [1] = system: GST-NR2F6 fusion protein, wild-type, full-length (purified recombinant)
# [2] = system: GST-NR2F6 fusion protein, S89A mutant, full-length
# [3] = system: GST-NR2F6 fusion protein, S83A mutant, full-length
# Sequence of GST-NR2F6 fusion protein, S83A mutant, full-length (chain, as listed by the source S83A): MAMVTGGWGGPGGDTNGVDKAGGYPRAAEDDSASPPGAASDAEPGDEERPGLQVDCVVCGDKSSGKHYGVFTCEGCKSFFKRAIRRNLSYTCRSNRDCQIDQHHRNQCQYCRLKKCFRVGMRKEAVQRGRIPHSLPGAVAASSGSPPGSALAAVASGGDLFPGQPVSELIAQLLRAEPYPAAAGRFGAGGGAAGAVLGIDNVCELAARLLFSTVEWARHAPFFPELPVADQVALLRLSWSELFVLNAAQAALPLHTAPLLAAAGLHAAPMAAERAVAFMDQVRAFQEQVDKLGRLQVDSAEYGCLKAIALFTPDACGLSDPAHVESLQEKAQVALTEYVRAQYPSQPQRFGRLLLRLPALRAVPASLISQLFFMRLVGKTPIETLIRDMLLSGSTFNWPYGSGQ
# Sequence of recombinant PKCtheta (Q04759 whole entry): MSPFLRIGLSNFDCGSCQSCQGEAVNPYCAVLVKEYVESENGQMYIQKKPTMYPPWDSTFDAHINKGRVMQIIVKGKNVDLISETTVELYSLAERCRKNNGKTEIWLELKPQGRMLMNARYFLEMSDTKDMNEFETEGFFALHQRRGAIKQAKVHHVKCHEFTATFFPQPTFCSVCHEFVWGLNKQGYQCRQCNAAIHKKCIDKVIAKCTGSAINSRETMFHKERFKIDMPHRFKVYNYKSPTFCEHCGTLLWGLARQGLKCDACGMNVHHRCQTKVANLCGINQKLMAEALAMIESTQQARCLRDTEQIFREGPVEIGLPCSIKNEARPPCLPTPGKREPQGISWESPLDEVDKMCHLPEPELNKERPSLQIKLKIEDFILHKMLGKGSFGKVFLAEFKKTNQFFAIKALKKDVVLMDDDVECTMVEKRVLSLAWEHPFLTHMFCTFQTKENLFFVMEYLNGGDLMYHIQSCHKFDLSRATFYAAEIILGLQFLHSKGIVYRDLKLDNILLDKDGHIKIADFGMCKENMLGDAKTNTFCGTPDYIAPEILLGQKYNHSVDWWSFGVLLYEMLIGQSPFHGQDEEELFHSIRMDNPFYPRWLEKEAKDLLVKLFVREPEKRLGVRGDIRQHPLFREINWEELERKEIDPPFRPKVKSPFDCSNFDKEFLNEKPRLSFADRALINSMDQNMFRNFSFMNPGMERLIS
# Sequence of GST-NR2F6 fusion protein, wild-type, full-length (purified recombinant) (chain, as listed by the source): as the sequence (chain, as listed by the source S83A) above, with A83S counted along it
# Sequence of GST-NR2F6 fusion protein, S89A mutant, full-length (chain, as listed by the source S89A): as the sequence (chain, as listed by the source S83A) above, with A83S, S89A counted along it
Substance,in vitro protein kinase assay (32P incorporation into GST-NR2F6) [1],in vitro protein kinase assay (32P incorporation into GST-NR2F6) [2],in vitro protein kinase assay (32P incorporation into GST-NR2F6) [3]
Protein kinase A (PKA),(but not PKCzeta or PKA) were able to phosphorylate recombinant NR2F6 in vitro,,
recombinant PKCalpha,"PKCalpha, delta and theta (but not PKCzeta or PKA) were able to phosphorylate recombinant NR2F6 in vitro",This phosphorylation was lost after the predicted phosphorylation site at Ser-83 (but not at Ser-89) was mutated in the full-length NR2F6 protein,This phosphorylation was lost after the predicted phosphorylation site at Ser-83 (but not at Ser-89) was mutated in the full-length NR2F6 protein
recombinant PKCdelta,"PKCalpha, delta and theta (but not PKCzeta or PKA) were able to phosphorylate recombinant NR2F6 in vitro",This phosphorylation was lost after the predicted phosphorylation site at Ser-83 (but not at Ser-89) was mutated in the full-length NR2F6 protein,This phosphorylation was lost after the predicted phosphorylation site at Ser-83 (but not at Ser-89) was mutated in the full-length NR2F6 protein
recombinant PKCtheta,"PKCalpha, delta and theta (but not PKCzeta or PKA) were able to phosphorylate recombinant NR2F6 in vitro",This phosphorylation was lost after the predicted phosphorylation site at Ser-83 (but not at Ser-89) was mutated in the full-length NR2F6 protein,This phosphorylation was lost after the predicted phosphorylation site at Ser-83 (but not at Ser-89) was mutated in the full-length NR2F6 protein
